This note sets out measurements from PMC6523098 (2019).

This test has as its target T1, His:AtBPM3 (Arabidopsis thaliana (Mouse-ear cress), UniProt O22286).
T1 chain: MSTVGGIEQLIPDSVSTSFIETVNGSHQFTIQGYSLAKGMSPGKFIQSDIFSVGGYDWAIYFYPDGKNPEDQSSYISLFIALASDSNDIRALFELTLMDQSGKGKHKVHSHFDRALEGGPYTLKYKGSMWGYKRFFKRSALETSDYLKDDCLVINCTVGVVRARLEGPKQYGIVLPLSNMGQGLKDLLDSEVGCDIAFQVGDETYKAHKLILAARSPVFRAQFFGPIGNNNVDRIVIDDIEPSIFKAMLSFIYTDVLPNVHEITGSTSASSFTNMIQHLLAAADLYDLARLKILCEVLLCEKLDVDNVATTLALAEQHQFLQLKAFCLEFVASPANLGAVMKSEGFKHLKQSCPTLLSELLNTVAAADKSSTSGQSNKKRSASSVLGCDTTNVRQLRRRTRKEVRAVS
Nature of the test: pulldown.

B1: GST:AtRAP2.4 (protein)
chain: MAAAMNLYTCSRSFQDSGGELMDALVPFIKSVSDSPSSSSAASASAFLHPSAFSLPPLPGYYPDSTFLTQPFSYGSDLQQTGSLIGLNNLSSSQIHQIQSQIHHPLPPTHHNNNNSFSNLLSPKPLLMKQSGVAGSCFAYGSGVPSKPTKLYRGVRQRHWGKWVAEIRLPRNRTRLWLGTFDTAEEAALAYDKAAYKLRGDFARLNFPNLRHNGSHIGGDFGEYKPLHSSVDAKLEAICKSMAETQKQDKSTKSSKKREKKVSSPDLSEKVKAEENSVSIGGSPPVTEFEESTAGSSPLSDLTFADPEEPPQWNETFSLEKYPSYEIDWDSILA
In the case of B1, the binding result is “binds”.
